Data as given in patent publication US20230220042A1 (SHANGHAI JIAO TONG UNIVERSITY SCHOOL OF MEDICINE, published 2023).

T1: Biotin-FcγRIIB (human, UniProt P31994 43-217, limits assumed, biotin-labelled)
T1 construct: Bought, biotin-labelled; used at 1 µg/ml for staining and sorting; also called human FcγRIIB; CD32b
T1 sequence (looked up): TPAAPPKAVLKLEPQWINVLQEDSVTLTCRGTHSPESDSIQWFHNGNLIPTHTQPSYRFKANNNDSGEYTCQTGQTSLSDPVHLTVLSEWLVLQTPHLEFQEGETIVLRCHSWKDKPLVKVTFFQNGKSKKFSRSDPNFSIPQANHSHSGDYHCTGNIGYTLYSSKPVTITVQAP


Columns and labels:
Biotin-FcγRIIB (human) = Biotin-FcγRIIB (human) (UniProt P31994); assay: NGS of 3T3 display library C2 flow-sorted for FcγRIIB binding
Biotin-FcγRIIB [1] = biological target: T1, Biotin-FcγRIIB; assay: magnetic sorting on biotin-FcγRIIB with unlabelled activating FcγRs, NGS; Library4
Description: 3T3 cells were collected by trypsin digestion, and a single cell suspension was prepared. […] The cells were incubated for 15 minutes on ice and then washed twice with MACS buffer and re-suspended in 100 μl MACS buffer. Twenty-five μl anti-Biotin magnetic beads were added, and the cells were incubated for 15 minutes on ice and then washed once with MACS buffer and re-suspended to 500 μl, and added to the LS column put in the magnetic field. The effluent was collected, washed with 3 mL of MACS buffer and collected; The LS column was then removed out of the magnetic field, and 5 mL of MACS buffer was used to rapidly elute the remaining cells from the sorting column to collect positive cells, which are the high I/A ratio cells.
The high-FcγRIIB-affinity cells obtained from the above flow cytometry sorting are further sorted by magnetic-activated sorting. The cells are incubated with the mixture of Biotin-labeled FcγRIIB and non-labeled activating FcγRs, and then the labeled cells are sorted by anti-Biotin magnetic beads. The enrichment ratios after sorting relative to before sorting are analyzed by NGS.

Biotin-FcγRIIB [2] = biological target: T1, Biotin-FcγRIIB; assay: FACS sorting of displayed Fc library on biotin-FcγRIIB, NGS
Biotin-FcγRIIB [3] = biological target: T1, Biotin-FcγRIIB; assay: FACS sorting of displayed Fc library on biotin-FcγRIIB, NGS; reference S267E

Row | Enrichment factor (percentage after sorting/percentage before sorting) (Biotin-FcγRIIB [1]) | Increased factor (mutation enrichment factor/wild-type enrichment factor) (Biotin-FcγRIIB [1]) | Percentage after sorting/unbinding percentage (Biotin-FcγRIIB [1]) | Percentage before sorting/unbinding percentage (Biotin-FcγRIIB [1]) | Enrichment factor (after/before sorting) (Biotin-FcγRIIB [2]) | Increased factor a (enrichment factor/wild-type enrichment factor) (Biotin-FcγRIIB [2]) | Increased factor 2 c Site 1 (combined/point mutation) (Biotin-FcγRIIB [3]) | Molecule | other results
1 |  |  |  |  |  |  |  | human IgG2 anti-mouse CD40 surface displayed antibody, V234Q/V266L/S267D/H268D/E269D/P271Q | enrichment factor, percentage after 3rd sorting/percentage after 2nd sorting (Biotin-FcγRIIB (human)): 15.4; percentage after 2nd sorting (Biotin-FcγRIIB (human)): 0%; percentage after 3rd sorting (Biotin-FcγRIIB (human)): 0.04%
2 | 3.77 | 4.28 | 3.8 | 1.01 |  |  |  | human IgG2 anti-mouse CD40 surface displayed antibody, Fc mutant G327L (antibody, name in EU numbering, as m1; positions are Eu numbers; copies: 2 + 2) light chain (with the P2A rest): DTVLTQSPALAVSPGERVTISCRASDSVSTLMHWYQQKPGQQPKLLIYLASHLESGVPARFSGSGSGTDFTLTIDPVEADDTATYYCQQSWNDPWTFGGGTKLELKRTVAAPSVFIFPPSDEQLKSGTASVVCLLNNFYPREAKVQWKVDNALQSGNSQESVTEQDSKDSTYSLSSTLTLSKADYEKHKVYACEVTHQGLSSPVTKSFNRGECGSGATNFSLLKQAGDVEENPG heavy chain: EVQLVESDGGLVQPGRSLKLPCAASGFTFSDYYMAWVRQAPTKGLEWVASISYDGSSTYYRDSVKGRFTISRDNAKSTLYLQMDSLRSEDTATYYCGRHSSYFDYWGQGVMVTVSSASTKGPSVFPLAPCSRSTSESTAALGCLVKDYFPEPVTVSWNSGALTSGVHTFPAVLQSSGLYSLSSVVTVPSSNFGTQTYTCNVDHKPSNTKVDKTVERKCCVECPPCPAPPVAGPSVFLFPPKPKDTLMISRTPEVTCVVVDVSHEDPEVQFNWYVDGVEVHNAKTKPREEQFNSTFRVVSVLTVVHQDWLNGKEYKCKVSNKLLPAPIEKTISKTKGQPREPQVYTLPPSREEMTKNQVSLTCLVKGFYPSDIAVEWESNGQPENNYKTTPPMLDSDGSFFLYSKLTVDKSRWQQGNVFSCSVMHEALHNHYTQKSLSLSPGKLEPPPSTVSNMATVAVLVVLGAAIVTGAVVAFVMKMRRRNTGGKGGDYALAPGSQTSDLSLPDCKVMVHDPHSLA | 
3 |  |  |  |  | 42.7 | 74.3 | 2.6 | human IgG2 anti-mouse CD40 surface displayed antibody, Fc mutant S267E/D270H (antibody, name in EU numbering, as m1; positions are Eu numbers; copies: 2 + 2) light chain (with the P2A rest): DTVLTQSPALAVSPGERVTISCRASDSVSTLMHWYQQKPGQQPKLLIYLASHLESGVPARFSGSGSGTDFTLTIDPVEADDTATYYCQQSWNDPWTFGGGTKLELKRTVAAPSVFIFPPSDEQLKSGTASVVCLLNNFYPREAKVQWKVDNALQSGNSQESVTEQDSKDSTYSLSSTLTLSKADYEKHKVYACEVTHQGLSSPVTKSFNRGECGSGATNFSLLKQAGDVEENPG heavy chain: EVQLVESDGGLVQPGRSLKLPCAASGFTFSDYYMAWVRQAPTKGLEWVASISYDGSSTYYRDSVKGRFTISRDNAKSTLYLQMDSLRSEDTATYYCGRHSSYFDYWGQGVMVTVSSASTKGPSVFPLAPCSRSTSESTAALGCLVKDYFPEPVTVSWNSGALTSGVHTFPAVLQSSGLYSLSSVVTVPSSNFGTQTYTCNVDHKPSNTKVDKTVERKCCVECPPCPAPPVAGPSVFLFPPKPKDTLMISRTPEVTCVVVDVEHEHPEVQFNWYVDGVEVHNAKTKPREEQFNSTFRVVSVLTVVHQDWLNGKEYKCKVSNKGLPAPIEKTISKTKGQPREPQVYTLPPSREEMTKNQVSLTCLVKGFYPSDIAVEWESNGQPENNYKTTPPMLDSDGSFFLYSKLTVDKSRWQQGNVFSCSVMHEALHNHYTQKSLSLSPGKLEPPPSTVSNMATVAVLVVLGAAIVTGAVVAFVMKMRRRNTGGKGGDYALAPGSQTSDLSLPDCKVMVHDPHSLA | 
4 | 6.9 | 7.84 | 71.2 | 10.3 |  |  |  | human IgG2 anti-mouse CD40 surface displayed antibody, Fc mutant G327S (antibody, name in EU numbering, as m1; positions are Eu numbers; copies: 2 + 2) light chain (with the P2A rest): DTVLTQSPALAVSPGERVTISCRASDSVSTLMHWYQQKPGQQPKLLIYLASHLESGVPARFSGSGSGTDFTLTIDPVEADDTATYYCQQSWNDPWTFGGGTKLELKRTVAAPSVFIFPPSDEQLKSGTASVVCLLNNFYPREAKVQWKVDNALQSGNSQESVTEQDSKDSTYSLSSTLTLSKADYEKHKVYACEVTHQGLSSPVTKSFNRGECGSGATNFSLLKQAGDVEENPG heavy chain: EVQLVESDGGLVQPGRSLKLPCAASGFTFSDYYMAWVRQAPTKGLEWVASISYDGSSTYYRDSVKGRFTISRDNAKSTLYLQMDSLRSEDTATYYCGRHSSYFDYWGQGVMVTVSSASTKGPSVFPLAPCSRSTSESTAALGCLVKDYFPEPVTVSWNSGALTSGVHTFPAVLQSSGLYSLSSVVTVPSSNFGTQTYTCNVDHKPSNTKVDKTVERKCCVECPPCPAPPVAGPSVFLFPPKPKDTLMISRTPEVTCVVVDVSHEDPEVQFNWYVDGVEVHNAKTKPREEQFNSTFRVVSVLTVVHQDWLNGKEYKCKVSNKSLPAPIEKTISKTKGQPREPQVYTLPPSREEMTKNQVSLTCLVKGFYPSDIAVEWESNGQPENNYKTTPPMLDSDGSFFLYSKLTVDKSRWQQGNVFSCSVMHEALHNHYTQKSLSLSPGKLEPPPSTVSNMATVAVLVVLGAAIVTGAVVAFVMKMRRRNTGGKGGDYALAPGSQTSDLSLPDCKVMVHDPHSLA | 
5 | 2.73 | 3.11 | 50.9 | 18.6 |  |  |  | human IgG2 anti-mouse CD40 surface displayed antibody, Fc mutant L328N (antibody, name in EU numbering, as m1; positions are Eu numbers; copies: 2 + 2) light chain (with the P2A rest): DTVLTQSPALAVSPGERVTISCRASDSVSTLMHWYQQKPGQQPKLLIYLASHLESGVPARFSGSGSGTDFTLTIDPVEADDTATYYCQQSWNDPWTFGGGTKLELKRTVAAPSVFIFPPSDEQLKSGTASVVCLLNNFYPREAKVQWKVDNALQSGNSQESVTEQDSKDSTYSLSSTLTLSKADYEKHKVYACEVTHQGLSSPVTKSFNRGECGSGATNFSLLKQAGDVEENPG heavy chain: EVQLVESDGGLVQPGRSLKLPCAASGFTFSDYYMAWVRQAPTKGLEWVASISYDGSSTYYRDSVKGRFTISRDNAKSTLYLQMDSLRSEDTATYYCGRHSSYFDYWGQGVMVTVSSASTKGPSVFPLAPCSRSTSESTAALGCLVKDYFPEPVTVSWNSGALTSGVHTFPAVLQSSGLYSLSSVVTVPSSNFGTQTYTCNVDHKPSNTKVDKTVERKCCVECPPCPAPPVAGPSVFLFPPKPKDTLMISRTPEVTCVVVDVSHEDPEVQFNWYVDGVEVHNAKTKPREEQFNSTFRVVSVLTVVHQDWLNGKEYKCKVSNKGNPAPIEKTISKTKGQPREPQVYTLPPSREEMTKNQVSLTCLVKGFYPSDIAVEWESNGQPENNYKTTPPMLDSDGSFFLYSKLTVDKSRWQQGNVFSCSVMHEALHNHYTQKSLSLSPGKLEPPPSTVSNMATVAVLVVLGAAIVTGAVVAFVMKMRRRNTGGKGGDYALAPGSQTSDLSLPDCKVMVHDPHSLA | 
6 |  |  |  |  | 24 | 41.8 | 1.5 | human IgG2 anti-mouse CD40 surface displayed antibody, Fc mutant S267E/P271W (antibody, name in EU numbering, as m1; positions are Eu numbers; copies: 2 + 2) light chain (with the P2A rest): DTVLTQSPALAVSPGERVTISCRASDSVSTLMHWYQQKPGQQPKLLIYLASHLESGVPARFSGSGSGTDFTLTIDPVEADDTATYYCQQSWNDPWTFGGGTKLELKRTVAAPSVFIFPPSDEQLKSGTASVVCLLNNFYPREAKVQWKVDNALQSGNSQESVTEQDSKDSTYSLSSTLTLSKADYEKHKVYACEVTHQGLSSPVTKSFNRGECGSGATNFSLLKQAGDVEENPG heavy chain: EVQLVESDGGLVQPGRSLKLPCAASGFTFSDYYMAWVRQAPTKGLEWVASISYDGSSTYYRDSVKGRFTISRDNAKSTLYLQMDSLRSEDTATYYCGRHSSYFDYWGQGVMVTVSSASTKGPSVFPLAPCSRSTSESTAALGCLVKDYFPEPVTVSWNSGALTSGVHTFPAVLQSSGLYSLSSVVTVPSSNFGTQTYTCNVDHKPSNTKVDKTVERKCCVECPPCPAPPVAGPSVFLFPPKPKDTLMISRTPEVTCVVVDVEHEDWEVQFNWYVDGVEVHNAKTKPREEQFNSTFRVVSVLTVVHQDWLNGKEYKCKVSNKGLPAPIEKTISKTKGQPREPQVYTLPPSREEMTKNQVSLTCLVKGFYPSDIAVEWESNGQPENNYKTTPPMLDSDGSFFLYSKLTVDKSRWQQGNVFSCSVMHEALHNHYTQKSLSLSPGKLEPPPSTVSNMATVAVLVVLGAAIVTGAVVAFVMKMRRRNTGGKGGDYALAPGSQTSDLSLPDCKVMVHDPHSLA | 
7 |  |  |  |  | 22.1 | 38.4 | 1.4 | human IgG2 anti-mouse CD40 surface displayed antibody, Fc mutant S267E/P271V (antibody, name in EU numbering, as m1; positions are Eu numbers; copies: 2 + 2) light chain (with the P2A rest): DTVLTQSPALAVSPGERVTISCRASDSVSTLMHWYQQKPGQQPKLLIYLASHLESGVPARFSGSGSGTDFTLTIDPVEADDTATYYCQQSWNDPWTFGGGTKLELKRTVAAPSVFIFPPSDEQLKSGTASVVCLLNNFYPREAKVQWKVDNALQSGNSQESVTEQDSKDSTYSLSSTLTLSKADYEKHKVYACEVTHQGLSSPVTKSFNRGECGSGATNFSLLKQAGDVEENPG heavy chain: EVQLVESDGGLVQPGRSLKLPCAASGFTFSDYYMAWVRQAPTKGLEWVASISYDGSSTYYRDSVKGRFTISRDNAKSTLYLQMDSLRSEDTATYYCGRHSSYFDYWGQGVMVTVSSASTKGPSVFPLAPCSRSTSESTAALGCLVKDYFPEPVTVSWNSGALTSGVHTFPAVLQSSGLYSLSSVVTVPSSNFGTQTYTCNVDHKPSNTKVDKTVERKCCVECPPCPAPPVAGPSVFLFPPKPKDTLMISRTPEVTCVVVDVEHEDVEVQFNWYVDGVEVHNAKTKPREEQFNSTFRVVSVLTVVHQDWLNGKEYKCKVSNKGLPAPIEKTISKTKGQPREPQVYTLPPSREEMTKNQVSLTCLVKGFYPSDIAVEWESNGQPENNYKTTPPMLDSDGSFFLYSKLTVDKSRWQQGNVFSCSVMHEALHNHYTQKSLSLSPGKLEPPPSTVSNMATVAVLVVLGAAIVTGAVVAFVMKMRRRNTGGKGGDYALAPGSQTSDLSLPDCKVMVHDPHSLA | 
